One data set addresses T1, RAG1 central domain (Mus musculus, UniProt P15919).
T1 construct: central domain (amino acids 528–760)
T1 sequence (P15919 528-760): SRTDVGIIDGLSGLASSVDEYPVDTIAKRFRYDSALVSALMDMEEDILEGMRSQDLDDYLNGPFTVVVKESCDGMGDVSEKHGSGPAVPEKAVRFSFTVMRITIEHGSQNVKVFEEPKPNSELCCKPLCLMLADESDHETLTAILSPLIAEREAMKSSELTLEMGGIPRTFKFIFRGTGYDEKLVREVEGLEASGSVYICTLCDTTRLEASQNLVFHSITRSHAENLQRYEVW
The data set can be described thus: biolayer interferometry (biotinylated central domain on SSA sensors); also circular dichroism, and inhibition of purified cRAG binding, cleavage and hairpin formation.

Data set [1] deals with T2, RAG1 central domain mutant CD-DD (Mus musculus, UniProt P15919, D600A/D708A).
T2 construct: central domain (amino acids 528–760) with point mutations D600A/D708A
T2 sequence (P15919 528-760 D600A/D708A): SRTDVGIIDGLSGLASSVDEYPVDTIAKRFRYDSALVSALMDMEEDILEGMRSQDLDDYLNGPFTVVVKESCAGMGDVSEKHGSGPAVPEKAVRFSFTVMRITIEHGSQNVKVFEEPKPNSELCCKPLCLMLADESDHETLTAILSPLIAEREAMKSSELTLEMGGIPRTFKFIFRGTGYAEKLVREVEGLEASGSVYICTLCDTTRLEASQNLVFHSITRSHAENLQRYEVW
The data set can be described thus: biolayer interferometry (biotinylated CD-DD on SSA sensors). It is filed as binding.

In data set [2] the target is T3, MBP-core RAG1 (cRAG1);MBP-core RAG2 (cRAG2) (;, UniProt P15919;P21784 384-1040;1-383, |).
T3 sequence 1: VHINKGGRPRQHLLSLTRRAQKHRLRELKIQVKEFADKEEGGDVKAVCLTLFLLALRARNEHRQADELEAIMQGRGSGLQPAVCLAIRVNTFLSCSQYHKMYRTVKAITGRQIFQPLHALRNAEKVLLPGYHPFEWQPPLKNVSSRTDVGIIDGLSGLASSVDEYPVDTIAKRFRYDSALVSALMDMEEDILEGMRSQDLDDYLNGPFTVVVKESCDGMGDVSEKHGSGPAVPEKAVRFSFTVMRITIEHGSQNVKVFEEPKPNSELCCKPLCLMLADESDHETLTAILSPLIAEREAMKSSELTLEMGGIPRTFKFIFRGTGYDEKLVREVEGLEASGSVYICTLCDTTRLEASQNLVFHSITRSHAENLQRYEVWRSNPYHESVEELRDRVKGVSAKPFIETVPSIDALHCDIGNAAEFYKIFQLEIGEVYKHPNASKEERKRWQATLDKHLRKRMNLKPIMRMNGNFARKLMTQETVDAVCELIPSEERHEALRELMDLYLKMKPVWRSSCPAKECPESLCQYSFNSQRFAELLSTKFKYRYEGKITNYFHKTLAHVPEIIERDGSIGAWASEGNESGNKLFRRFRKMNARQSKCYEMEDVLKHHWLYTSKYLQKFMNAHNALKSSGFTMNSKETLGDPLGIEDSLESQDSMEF
T3 sequence 2: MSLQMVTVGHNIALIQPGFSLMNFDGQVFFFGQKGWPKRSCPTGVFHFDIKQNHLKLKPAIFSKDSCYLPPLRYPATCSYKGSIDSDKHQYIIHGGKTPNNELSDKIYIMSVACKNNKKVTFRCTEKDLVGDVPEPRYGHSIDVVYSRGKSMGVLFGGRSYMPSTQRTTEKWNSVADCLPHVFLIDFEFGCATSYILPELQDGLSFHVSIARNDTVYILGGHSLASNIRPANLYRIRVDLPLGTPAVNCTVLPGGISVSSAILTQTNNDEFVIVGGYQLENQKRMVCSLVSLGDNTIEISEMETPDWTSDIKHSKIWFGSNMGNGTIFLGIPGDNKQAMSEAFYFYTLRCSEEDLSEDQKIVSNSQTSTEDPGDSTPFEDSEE
The data set is described as follows: EMSA; 5 mM Ca2+, Raltegravir 0.1-0.5 mM (no significant effect); 22.5 mM MOPS-KOH pH 7.0, 20% DMSO, 2.2 mM DTT, 50 mM K-glutamate, 2% glycerol, 100 ng/ml BSA, 5 mM CaCl2, 100 ng RAG, 2 h 25 C, then 0.01% glutaraldehyde fixation 37 C 10 min; 6% native PAGE. To be noted: protein: recombinant;recombinant; tags: N-terminal MBP;N-terminal MBP; chain copies: 2;2; label: 5'-32P on AKN46; blunt ends, internal 6-nt CCCCCC/CCCCCC bubble flanked by 15 bp each side.

A further data set concerns the target T4, MBP-core RAG1 (cRAG1) (UniProt P15919 384-1040).
T4 sequence: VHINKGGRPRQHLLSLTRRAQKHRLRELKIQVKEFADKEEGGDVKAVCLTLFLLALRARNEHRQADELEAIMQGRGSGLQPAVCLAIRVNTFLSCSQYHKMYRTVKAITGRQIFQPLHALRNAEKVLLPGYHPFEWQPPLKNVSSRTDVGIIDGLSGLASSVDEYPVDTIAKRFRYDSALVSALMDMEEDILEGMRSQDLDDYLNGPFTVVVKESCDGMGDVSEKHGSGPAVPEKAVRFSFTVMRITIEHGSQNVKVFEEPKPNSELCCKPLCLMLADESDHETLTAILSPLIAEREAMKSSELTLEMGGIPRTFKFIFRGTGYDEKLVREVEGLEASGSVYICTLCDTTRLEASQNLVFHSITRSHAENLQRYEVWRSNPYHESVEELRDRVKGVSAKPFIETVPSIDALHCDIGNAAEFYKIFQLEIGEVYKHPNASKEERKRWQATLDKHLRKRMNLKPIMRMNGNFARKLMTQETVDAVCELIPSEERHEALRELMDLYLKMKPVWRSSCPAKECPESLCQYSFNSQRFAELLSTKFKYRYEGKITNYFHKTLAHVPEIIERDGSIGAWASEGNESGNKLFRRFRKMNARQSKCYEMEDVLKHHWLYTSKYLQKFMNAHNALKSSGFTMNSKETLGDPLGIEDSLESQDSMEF
The data set is described as follows: EMSA; 5 mM Ca2+; lower band assigned to RAG1 alone; 22.5 mM MOPS-KOH pH 7.0, 20% DMSO, 2.2 mM DTT, 50 mM K-glutamate, 2% glycerol, 100 ng/ml BSA, 5 mM CaCl2, 100 ng RAG, 2 h 25 C, then 0.01% glutaraldehyde fixation 37 C 10 min; 6% native PAGE. Conditions: protein: recombinant; tags: N-terminal MBP; chain copies: 2; label: 5'-32P on AKN1; 1-nt 5' overhang at each end (49 bp).

Data set [3] deals with T3, MBP-core RAG1 (cRAG1);MBP-core RAG2 …. The data set can be described thus: EMSA; 5 mM Ca2+, no inhibitor; 22.5 mM MOPS-KOH pH 7.0, 20% DMSO, 2.2 mM DTT, 50 mM K-glutamate, 2% glycerol, 100 ng/ml BSA, 5 mM CaCl2, 100 ng RAG, 2 h 25 C, then 0.01% glutaraldehyde fixation 37 C 10 min; 6% native PAGE. Conditions: protein: recombinant;recombinant; tags: N-terminal MBP;N-terminal MBP; chain copies: 2;2; label: 5'-32P on AKN1; 1-nt 5' overhang at each end (49 bp).

In the case of `COc1cc2c(cc1Cc1cccc(Cl)c1F)c(=O)c(C(=O)O)cn2[C@H](CO)C(C)C` [EVG, Elvitegravir], the values for the Kd (at RAG1 central domain; in data set [1]) were 32.5 ± 2.9 µM and 43.7 ± 3 µM, respectively.

B1: (C/C)6 bubble heteroduplex (AKN46/AKN20) (mixed)
DNA 1: GACCTGAGGGCGAGCCCCCCCCGAGTAACTTAACAG
DNA 2: CTGTTAAGTTACTCGCCCCCCGCTCGCCCTCAGGTC
On to B1, for which the binding result in data set [2] is “binds”.

B2: 12RSS (AKN1/AKN2) (dsDNA)
DNA 1: GATCAGCTGATAGCTACCACAGTGCTACAGACTGGAACAAAAACCCTGCT
DNA 2: TAGCAGGGTTTTTGTTCCAGTCTGTAGCACTGTGGTAGCTATCAGCTGAT
For the molecule B2, the binding result (with MBP-core RAG1 (cRAG1); in data set [3]) was “binds” throughout.
